± gives the standard deviation of the averaged measurements.
How the values were obtained:
[1] = tested on: Saccharomyces cerevisiae; experiment: protein stability index of tFT-peptide fusion (C-terminal peptide) (PSI (0-1 scale)); higher = more stable (slower turnover)
Description: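 MPS profiling in S. cerevisiae of the tFT-X12 degron library: putative degron peptides plus stable controls, 12 aa, fused to the C-terminus of a sfGFP-mCherry timer. Cells are FACS-sorted into 8 mCherry/sfGFP bins and deep-sequenced. PSI runs from 0 (unstable) to 1 (stable). Backgrounds are wild type, das1Δ and doa10Δ at 30 °C, and wild type, das1Δ, cdc34-1 and cdc53-1 at 37 °C; 2-3 technical replicates each.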

[2] = tested on: Saccharomyces cerevisiae; experiment: as above; conditions: genetic background: wild type; temperature: 30 C
[3] = genetic background: cdc34-1, temperature: 37 C
[4] = genetic background: cdc53-1, temperature: 37 C
[5] = genetic background: das1 deletion, temperature: 30 C
[6] = genetic background: das1 deletion, temperature: 37 C
[7] = genetic background: doa10 deletion, temperature: 30 C
[8] = genetic background: wild type, temperature: 30 C
[9] = genetic background: wild type, temperature: 37 C
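Also: PSI is a weighted mean of sequencing reads over stability bins, variants kept only with over 10 reads, mCherry proximal and sfGFP distal, peptide attached via GGGS linker.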

| Sequence | protein stability index [1, 3] | protein stability index [1, 4] | protein stability index [1, 5] | protein stability index [1, 6] | protein stability index [1, 7] | protein stability index [1, 8] | protein stability index [1, 9] | protein stability index [2] |
| --- | --- | --- | --- | --- | --- | --- | --- | --- |
| LVGLLASWLRFN | 0.579 ± 0.052 | 0.6987 ± 0.001 | 0.672 ± 0.0051 | 0.773 ± 0.017 | 0.12 ± 0.0057 | 0.137 ± 0.012 | 0.199 ± 0.061 | 0.137 ± 0.039 |
| LVLALTPFLHSF | 0.639 ± 0.01 | 0.701 ± 0.017 | 0.638 ± 0.021 | 0.727 ± 0.012 | 0.239 ± 0.0075 | 0.284 ± 0.018 | 0.551 ± 0.0073 | 0.399 ± 0.0069 |
| LVLSVWFFNCTS | 0.485 ± 0.0093 | 0.569 ± 0.021 | 0.422 ± 0.032 | 0.573 ± 0.022 | 0.277 ± 0.0063 | 0.283 ± 0.039 | 0.5196 ± 0.0025 | 0.424 ± 0.021 |
| LVRFYGPLPPFP | 0.688 ± 0.047 | 0.7613 ± 0.0063 | 0.664 ± 0.029 | 0.757 ± 0.011 | 0.656 ± 0.016 | 0.66 ± 0.011 | 0.729 ± 0.011 | 0.7258 ± 0.0068 |
| LVRGGLTNLFLF | 0.664 ± 0.046 | 0.78 ± 0.019 | 0.644 ± 0.024 | 0.7829 ± 0.0056 | 0.181 ± 0.0012 | 0.194 ± 0.032 | 0.47 ± 0.016 | 0.316 ± 0.032 |
| LWFFVVVVVRWV | 0.102 ± 0.014 | 0.135 ± 0.0081 | 0.149 ± 0.032 | 0.2611 ± 0.0017 | 0.139 ± 0.019 | 0.136 ± 0.027 | 0.183 ± 0.03 | 0.189 ± 0.053 |
| LWRFFFVAFVGI | 0.446 ± 0.0079 | 0.509 ± 0.024 | 0.377 ± 0.034 | 0.55 ± 0.0084 | 0.359 ± 0.0076 | 0.357 ± 0.021 | 0.515 ± 0.018 | 0.421 ± 0.025 |
| MALAVRVVFCGA | 0.3299 ± 0.0012 | 0.338 ± 0.0067 | 0.275 ± 0.032 | 0.436 ± 0.015 | 0.227 ± 0.0095 | 0.27 ± 0.025 | 0.418 ± 0.01 | 0.371 ± 0.058 |
| MALAVRVVICGA | 0.0365 ± 0.01 | 0.11 ± 0.097 | 0.134 ± 0.015 | 0.172 ± 0.011 | 0.103 ± 0.012 | 0.107 ± 0.019 | 0.134 ± 0.026 | 0.169 ± 0.0098 |
| MLCVFVFIWYFV | 0.235 ± 0.03 | 0.279 ± 0.013 | 0.254 ± 0.011 | 0.359 ± 0.0048 | 0.218 ± 0.013 | 0.208 ± 0.024 | 0.307 ± 0.02 | 0.235 ± 0.011 |
| MLFALLTIVFLG | 0.241 ± 0.031 | 0.3263 ± 0.0015 | 0.242 ± 0.024 | 0.388 ± 0.0085 | 0.166 ± 0.0093 | 0.182 ± 0.015 | 0.30056 ± 0.00017 | 0.295 ± 0.016 |
| MLTYVVRSLVGY | 0.484 ± 0.0066 | 0.4954 ± 0.0015 | 0.37 ± 0.045 | 0.527 ± 0.011 | 0.331 ± 0.017 | 0.375 ± 0.023 | 0.496 ± 0.018 | 0.422 ± 0.029 |
| MWFVGLCLHFFM | 0.472 ± 0.029 | 0.5504 ± 0.0014 | 0.409 ± 0.024 | 0.546 ± 0.035 | 0.344 ± 0.0067 | 0.364 ± 0.017 | 0.499 ± 0.019 | 0.3985 ± 0.0019 |
| NAGSHHAAVKLG | 0.664 ± 0.064 | 0.74 ± 0.027 | 0.6411 ± 0.0016 | 0.7163 ± 0.001 | 0.222 ± 0.018 | 0.266 ± 0.023 | 0.502 ± 0.012 | 0.399 ± 0.06 |
| NCMGLLMPLLIT | 0.437 ± 0.024 | 0.391 ± 0.0086 | 0.378 ± 0.039 | 0.504 ± 0.019 | 0.2688 ± 0.00028 | 0.254 ± 0.037 | 0.382 ± 0.012 | 0.353 ± 0.0039 |
| NFFLLFFFFLSF | 0.455 ± 0.037 | 0.4876 ± 0.0038 | 0.398 ± 0.045 | 0.535 ± 0.0082 | 0.4656 ± 0.0034 | 0.41 ± 0.043 | 0.512 ± 0.022 | 0.415 ± 0.049 |
| PAMPTEPKSSSG | 0.667 ± 0.019 | 0.7403 ± 0.0028 | 0.629 ± 0.015 | 0.716 ± 0.034 | 0.644 ± 0.015 | 0.667 ± 0.033 | 0.717 ± 0.0095 | 0.7016 ± 0.0016 |
| PFFSSLKYRRDH | 0.598 ± 0.07 | 0.751 ± 0.014 | 0.6675 ± 0.0032 | 0.77 ± 0.02 | 0.117 ± 0.024 | 0.142 ± 0.023 | 0.197 ± 0.014 | 0.237 ± 0.051 |
| PFFVFSFLFLLH | 0.114 ± 0.01 | 0.183 ± 0.023 | 0.192 ± 0.024 | 0.313 ± 0.035 | 0.194 ± 0.012 | 0.15 ± 0.029 | 0.275 ± 0.015 | 0.288 ± 0.054 |
| PHRLSRFILRLL | 0.562 ± 0.027 | 0.683 ± 0.014 | 0.65 ± 0.033 | 0.703 ± 0.013 | 0.118 ± 0.0059 | 0.119 ± 0.019 | 0.219 ± 0.015 | 0.194 ± 0.041 |

| Sequence | protein stability index [1, 3] | protein stability index [1, 4] | protein stability index [1, 5] | protein stability index [1, 6] | protein stability index [1, 7] | protein stability index [1, 8] | protein stability index [1, 9] | protein stability index [2] |
| --- | --- | --- | --- | --- | --- | --- | --- | --- |
| PLCLFPPLLVFL | 0.492 ± 0.044 | 0.526 ± 0.034 | 0.411 ± 0.024 | 0.556 ± 0.021 | 0.453 ± 0.022 | 0.387 ± 0.02 | 0.5103 ± 0.0047 | 0.462 ± 0.032 |
| PLFLLTFAITLV | 0.0736 ± 0.0086 | 0.194 ± 0.06 | 0.166 ± 0.024 | 0.277 ± 0.018 | 0.152 ± 0.0066 | 0.146 ± 0.028 | 0.2289 ± 0.00087 | 0.272 ± 0.021 |
| PLLLLLPSLLLV | 0.363 ± 0.027 | 0.413 ± 0.011 | 0.3 ± 0.029 | 0.439 ± 0.021 | 0.149 ± 0.0015 | 0.18 ± 0.017 | 0.248 ± 0.013 | 0.25 ± 0.025 |
| PLRRPSWVVLSS | 0.671 ± 0.024 | 0.7218 ± 0.0037 | 0.638 ± 0.014 | 0.727 ± 0.0099 | 0.357 ± 0.024 | 0.38 ± 0.029 | 0.5802 ± 0.0041 | 0.493 ± 0.0029 |
| PPIPTPSPIPLH | 0.66 ± 0.018 | 0.726 ± 0.0011 | 0.653 ± 0.017 | 0.695 ± 0.021 | 0.667 ± 0.011 | 0.658 ± 0.017 | 0.677 ± 0.015 | 0.7119 ± 0.0055 |
| PPPHPPPATFLS | 0.661 ± 0.029 | 0.692 ± 0.0097 | 0.676 ± 0.02 | 0.729 ± 0.022 | 0.401 ± 0.023 | 0.407 ± 0.021 | 0.596 ± 0.026 | 0.479 ± 0.011 |
| PPPPPPPSSSSL | 0.667 ± 0.041 | 0.735 ± 0.027 | 0.672 ± 0.017 | 0.722 ± 0.011 | 0.674 ± 0.013 | 0.696 ± 0.037 | 0.727 ± 0.03 | 0.388 ± 0.0099 |
| PPTHDSPVWSPS | 0.677 ± 0.06 | 0.721 ± 0.023 | 0.672 ± 0.029 | 0.7438 ± 0.0025 | 0.667 ± 0.017 | 0.687 ± 0.02 | 0.7217 ± 0.0029 | 0.743 ± 0.0086 |
| PPVAYVCHLYVT | 0.589 ± 0.058 | 0.614 ± 0.029 | 0.5 ± 0.017 | 0.6058 ± 0.0045 | 0.309 ± 0.031 | 0.335 ± 0.028 | 0.503 ± 0.013 | 0.428 ± 0.0053 |
| PPVLAPHLCFPP | 0.685 ± 0.008 | 0.736 ± 0.0089 | 0.657 ± 0.0043 | 0.739 ± 0.015 | 0.673 ± 0.028 | 0.675 ± 0.019 | 0.713 ± 0.019 | 0.724 ± 0.018 |
| PRTTHTPLLIAS | 0.566 ± 0.046 | 0.6584 ± 0.003 | 0.54 ± 0.012 | 0.662 ± 0.03 | 0.177 ± 0.012 | 0.205 ± 0.025 | 0.296 ± 0.046 | 0.296 ± 0.021 |
| PSFLAIRVCLLV | 0.0466 ± 0.00074 | 0.0881 ± 0.02 | 0.147 ± 0.034 | 0.211 ± 0.0098 | 0.0853 ± 0.02 | 0.0766 ± 0.01 | 0.0987 ± 0.036 | 0.133 ± 0.021 |
| PSPRLSLPPRLP | 0.631 ± 0.01 | 0.729 ± 0.029 | 0.677 ± 0.016 | 0.731 ± 0.017 | 0.71 ± 0.037 | 0.686 ± 0.024 | 0.6948 ± 0.002 | 0.737 ± 0.022 |
| PSPRRPPRSRFP | 0.651 ± 0.023 | 0.725 ± 0.028 | 0.653 ± 0.0072 | 0.7355 ± 0.0031 | 0.672 ± 0.03 | 0.654 ± 0.037 | 0.701 ± 0.017 | 0.732 ± 0.0084 |
| PSPYSLSPYFLV | 0.678 ± 0.032 | 0.74 ± 0.011 | 0.646 ± 0.013 | 0.7674 ± 0.0074 | 0.255 ± 0.013 | 0.302 ± 0.043 | 0.4902 ± 0.0013 | 0.425 ± 0.044 |
| PSRLSFALLFHL | 0.6483 ± 0.00029 | 0.682 ± 0.017 | 0.645 ± 0.018 | 0.7268 ± 0.0049 | 0.395 ± 0.025 | 0.406 ± 0.039 | 0.545 ± 0.0058 | 0.49 ± 0.025 |
| PTAGFFGLLVLV | 0.361 ± 0.0094 | 0.402 ± 0.035 | 0.294 ± 0.029 | 0.439 ± 0.005 | 0.279 ± 0.0034 | 0.286 ± 0.02 | 0.4087 ± 0.00047 | 0.397 ± 0.005 |
| PVHARYCSLKWA | 0.658 ± 0.037 | 0.741 ± 0.021 | 0.6329 ± 0.0026 | 0.7389 ± 0.0042 | 0.237 ± 0.036 | 0.279 ± 0.013 | 0.5159 ± 0.0024 | 0.373 ± 0.087 |
| PWGVGLACLFLL | 0.469 ± 0.017 | 0.683 ± 0.016 | 0.585 ± 0.017 | 0.736 ± 0.022 | 0.0882 ± 0.025 | 0.096 ± 0.017 | 0.1134 ± 0.00036 | 0.126 ± 0.025 |

Reference: the supplement of paper PMC10724198
